Measured values from the supplement of paper PMC9170038.

What was measured:
MS2 coat protein [1] = assay: apparent KD of MS2 coat protein, switch ON state; designed switch direction (-1 OFF switch, 1 ON switch): 1; higher = weaker reporter binding; details: FMN input: 0 or 200 uM; Eterna round: R93 (includes R88 designs)
Procedure, shortened: (§1)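 SNAP-549-labelled MS2 coat protein was titrated onto designed RNA switches that had been transcribed on-chip from Illumina sequencing clusters. Amounts doubled from 0.7 or 1.5 nM to 3 µM in 100 mM Tris-HCl pH 7.5, 80 mM KCl, 4 mM MgCl2, with constant ligand or without. Apparent KD is the median per design of normalised cluster binding-curve fits.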

MS2 coat protein [2] = assay: apparent KD of MS2 coat protein, switch OFF state (with FMN for OFF switches, without FMN for ON switches); designed switch direction (-1 OFF switch, 1 ON switch): 1; higher = weaker reporter binding; details: FMN input: 0 or 200 uM; Eterna round: R93 (includes R88 designs)
Procedure, shortened: as §1

Sequence | apparent KD of MS2 coat protein (MS2 coat protein [1]) [nM] | apparent KD of MS2 coat protein (MS2 coat protein [2]) [nM]
AAAAAACAUGAGGAUCACCCAUGUAAUACAACAUCAGGAUAUUGGCUUUACUAUGUAUUACAAGAAGGGAUGAAAA [Same State 1.3c (Same State 1 - Omei 2 )] | 171 | 53.8
AGAAAUAAAAGACAGGAUAUCCAAAAGAAAACAUGAGGAUCACCCAUGUAAAGAAAAUAAAAAUGGGAGAAGGGUCAAAUAAAAA [Mat - Same State 2 - JL mod - D49] | 34.4 | 33.9
CGGCUACAUGAGGAUCACCCAUGUCAGCCGAGGGCAGGAUAUGCGGUUCAUUCUCAAGCAGCAGAAGGGUCAAAAG [Onmabiat] | 12.8 | 8.83
AAAAAACAUGAGGAUCACCCAUGUGCAAAAUUCGCAGGAUAUUCCUCAAUUAAAUGAGAGGAAGAAGGGUGAAAAA [Nob's Hobby 26 - Jieux - Same State 1] | 21.3 | 171
UGCCAAUUGGCACAGGAUAUGAGCAUGCUCACAUGAGGAUCACCCAUGUGAUUACCAACGCAAUAUCAGAAGGGUGCCCUCGUCA [Relageor] | 32.1 | 50.4
AAUUCCACUAGCAAGGAUAUCUAAAACGAAACAUGAGGAUCACCCAUGUGACGACCACACGUAUCAGAGAAGGUGCAGGGUGAAU [JR_SS002_Sub307] | 20.5 | 31.9
GAGAGACAUGAGGAUCACCCAUGUAGGAUUAUGGGAGGAUAUACAAAGACGAGAGUCAGAGUAGAAGGCCUAGGAG [salish99-ss1-139] | 25.4 | 75.6
CGGAGACAUGAGGAUCACCCAUGUGAGAAGAGGCGAGGAUAUCGAAAGAAAGAAGAGAAACGAGAAGGCGCGAGGU [salish99-SS1-071] | 24.2 | 34.5
GAAAAACAUGAGGAUCACCCAUGUAGAAAUAUGGGAGGAUAUACAAAGACGAAAGUCAAAGUAGAAGGCUCAAAAG [Starry Same State 1.2 (mat747 round 1 mod)] | 28.3 | 164
AAAAGACAUGAGGAUCACCCAUGUGAAAACGUGCGAGGAUAUGUGUGGAAACCGUACUAUACAGAAGGCGCGUGUC [SS1 - 84] | 22.2 | 33.9
AGAAGACAUGAGGAUCACCCAUGUAGGAAUAUGGGAGGAUAUACAAAGACGAAAGUCAGAGUAGAAGGCCUAGGAA [salish99-SS1-090] | 18.5 | 53
GAAAAACAUGAGGAUCACCCAUGUAGAAAUAUGGGAGGAUAUACGAAGACGAAAGUCGAAGUAGAAGGCCUAAAAG [Mat - Same State 1 - Eli mod - D24] | 27 | 84.9
AACGAACAUGAGGAUCACCCAUGUUCCAACAGUUGAGGAUAUGUGGGUGAAAAUAGCACGGCAGAAGGCGAGUGUA [SameState1 Malc#21] | 70.2 | 49.8
UGGAGACAUGAGGAUCACCCAUGUGAGAAGAGGCGAGGAUAUCGAAAGAAAGAAGAGAAACGAGAAGGCGCGAGGC [salish99-SS1-047] | 43.3 | 27.6
AUAAGACAUGAGGAUCACCCAUGUAUAAGAGCAUGAGGAUAUAUGAAAAGUAAUAGGAGGAUAGAAGGCAUGGUUG [JR_SS001_Sub1219] | 89.7 | 102
AACUAACAUGAGGAUCACCCAUGUUACAGCAGUUGAGGAUAUGUGGGUGAAAAUAGCACGGCAGAAGGCGAGUGUA [SameState1 Malc#23] | 237 | 150
AAAAGACAUGAGGAUCACCCAUGUCUUCGGACAUGAGGAUAUGUACAGACUUCGGUCUGUACAGAAGGCAUAAAAA [SS1 - 1062] | 21.1 | 82.2
AGAAAACAUGAGGAUCACCCAUGUAGAAAUAUGGGAGGAUAUACAAAGACGAAAGUCAAAGUAGAAGGCCUGAAGA [Mat - Same State 1 - JL mod - D92] | 20.4 | 75
AAAACACAUGAGGAUCACCCAUGUAAAAACAAGAGAGGAUAUGCUUGGAAAACAUGCUAUGCAGAAGGCUCAAGUG [SS1 - 10] | 19.2 | 24.5
CGGAGACAUGAGGAUCACCCAUGUGAGAAGAGGCGAGGAUAUCGAAAGAAAGAAGAGAAACGAGAAGGCGCGAGUU [salish99-SS1-070] | 21.5 | 34.5
AAGAAACAUGAGGAUCACCCAUGUAGAAAUAUGGGAGGAUAUACAAGGACGGAAGUCAAGGUAGAAGGCCUAAGAA [Mat - Same State 1 - Meechl mod - D133] | 26.7 | 112
AGAAAACAUGAGGAUCACCCAUGUAGGAAUAUGGGAGGAUAUACAAAGACGAAAGUCAGAGUAGAAGGCCUAAAAA [salish99-SS1-086] | 17.5 | 92.3

Sequence | apparent KD of MS2 coat protein (MS2 coat protein [1]) [nM] | apparent KD of MS2 coat protein (MS2 coat protein [2]) [nM]
AGAAAAGAAAGUAAGGAUAUGCAUAAUAAAACAUGAGGAUCACCCAUGUUAAAAAAAAGAUCAUGGUAGAAGGUACAAAAGAAAG [SS2 M 36] | 17 | 12.3
AUAAUAAAAACACAGGAUAUCCAAAAGAAAACAUGAGGAUCACCCAUGUAAAGAAAAUAAAAAUGGGAGAAGGGUGAAAUAAAUA [Mat - Same State 2 - JL mod - D34] | 37.4 | 42.9
GAUGACAUAGUACAGGAUAUAUGAAUAGUCACAUGAGGAUCACCCAUGUGCAUUUAUAUGCGCACAUAGAAGGGUGGUAGUGAUC [Mat - Same state - Malcolm Mod - D126] | 79.9 | 49.8
CUGAGGAAGAGAGAGGAUAUCCAAAGGAAAACAUGAGGAUCACCCAUGUAAAAGGUAGGAAAUUGGGAGAAGGCUCAAGAGAGAG [salish99-ss2-068] | 22.4 | 34.3
UAUUAUUACACGAAGGAUAUCGAUAAUAGUACAUGAGGAUCACCCAUGUUCAAAUCAUUUUAGUACGAGAAGGUCGAGGGUAAAG [JR_SS002_Sub710] | 19.4 | 23.4
GGGAGACAUGAGGAUCACCCAUGUGAGAAGAGGCGAGGAUAUCGAAAGAAAGAAGAGAAACGAGAAGGCGCGAGGC [salish99-SS1-063] | 37.5 | 53.6
UAAGUACAUGAGGAUCACCCAUGUUGGAAUAGAGCAGGAUAUGUGCAGAGGGAAAUAAAAACAGAAGGGCUAAGAA [Same State #3] | 25.9 | 33
AAGAAACAUGAGGAUCACCCAUGUAAGAUAAACACAGGAUAUGCGAAAGAAACAAAAGAAGCAGAAGGGUGAAGAA [Mat - Same State 1 - Tesla mod - D146] | 17.1 | 29.4
UUACAGUGCGGGUAGGAUAUGUAGGGUGGUACAUGAGGAUCACCCAUGUAUCCACCCUUCGACCGGCAGAAGGGCCUGUCACUAC [Atarzale] | 12 | 12.8
GGAAAUAAAAGAGAGGAUAUCCAAAGGAAAACAUGAGGAUCACCCAUGUAAAAGGAAGGAAACUGGGAGAAGGCUCAAAAUAAGG [salish99-ss2-010] | 18.7 | 32.2
AUAAAACAUGAGGAUCACCCAUGUCCGACAAAUCAAGGAUAUGAGAGCAAAACCAGGCUGUUAGAAGGUGAAAGAA [Atlausa] | 154 | 154
AGAAAUAAACCUCAGGAUAUGGGUAAAUAAACAUGAGGAUCACCCAUGUAAAAGAAAAUAAAAAACCAGAAGGGAGAAAAUAAGA [Designing denovo 1] | 10.4 | 24.1
AAAAGACAUGAGGAUCACCCAUGUGAAAACGUACAAGGAUAUGUGUGGAAACCGUACUAUACAGAAGGUGUCUGUC [SS1 - 87] | 63 | 30.2
AAAAAACAUGAGGAUCACCCAUGUCCUCGGACGUGAGGAUAUGUACAGACUUCGGUCUGUACAGAAGGCAUGAAAA [SS1 - 1059] | 432 | 201
AAAAAAUAAAAAAAGGAUAUAAAUGGUACAACAUGAGGAUCACCCAUGUAGUACCAAAAAAUAAAAAAGAAGGAAAAAUAAAAAA [SS2: MS2 22] | 20.8 | 23.7
AUGGUCAAGUGUGAGGAUAUCCAGGCUCCCACAUGAGGAUCACCCAUGUCUUAAAGGGCGUAAAGGGAGAAGGUACGAACGCCAC [Diatenat] | 35.6 | 46.8
AUAUAAAUAAGCUAGGAUAUACUAAAGUAAACAUGAGGAUCACCCAUGUGAAGAAAGAAACUCAUGUAGAAGGAGCAUAUAUAUA [viburnum 3] | 45.6 | 185
GAGGACAUAGUACAGGAUAUAUGAAUAGUUACAUGAGGAUCACCCAUGUGCAUUAAUAUGCGAACAUAGAAGGGUGGUAGUUAUC [Mat - Same state - Malcolm Mod - D128] | 119 | 64.4
AUGAAUAGCCUCGAGGAUAUCCAGUCAUGCACAUGAGGAUCACCCAUGUAAGAGAGAGUAUAAUGGGAGAAGGCGAGUUCUCGGU [JR_SS002_Sub1705] | 50.5 | 72.2
AAAGAAUGAAGGCAGGAUAUGUGAAAAAAAACAUGAGGAUCACCCAUGUAAUAGAUGGUGAAAAGGCAGAAGGGCCAAGAAACAA [SS 2 Tesla 6] | 12.4 | 199
AGAUCUAGAAGGUAGGAUAUGUGAAAAAAUACAUGAGGAUCACCCAUGUGAUGAAUAAAAAGAAAAUAGAAGGACCAUCUAGAUC [Cross swing 2] | 16.5 | 40.7
